Experimental findings from US20230372522A1 (KUNMING SINOWAY NATURAL PHARMACEUTICALS, published 2023) are described below.

For test [1], the target named is T1, CD22 on Daudi cells (Daudi cell line expressing a high level of CD22) (UniProt P20273 20-847, limits assumed). Description: cell-based or functional assay.
In test [2] the target is T1, CD22 on Daudi cells (Daudi cell line …). Description: cell-based or functional assay. This is another data set of the same source.
Test [3] addresses T2, recombinant human Siglec-2/CD22 Fc chimera protein (R&D systems, Cat #1968-SL) (human, UniProt P20273 20-687).
T2 construct: Bought reagent, immobilized antigen in the ELISA; Fc part of the bought chimera not given
Description: ELISA, immobilized human CD22 Fc chimera. On the technique in general: In an ELISA, binding on a coated surface is turned into a signal by an enzyme label.

The target of test [4] is T2, recombinant human Siglec-2/CD22 Fc …. Description: ELISA, immobilized human CD22 Fc chimera. This is another data set of the same source.
Test [5] has the same target. Description: ELISA, immobilized human CD22 Fc chimera, detection with anti-Pseudomonas exotoxin A antibody.
Another test addresses biotinylated CD22 (UniProt P20273 20-687, limits assumed, biotinylated (site not stated)). Description: Octet (BLI), biotinylated CD22 on streptavidin biosensors.

B1: Recombinant immunotoxin VH ver 1 + VL ver 4 (H1L4 by the HmLn naming of paragraph 88) (other)
VL: MDIQMTQSPSTLSASVGDRVTITCRASQDISNYLNWFQQRPGQSPRLLIYYTSILHSGVPSRFSGSGSGTDYTLTISSLQPEDFATYYCQQGNTLPWTFGCGTKVEIK
chain: MEVQLVESGGGLVKPGGSLRLSCAASGFAFSIYDMSWVRQAPGKCLEWVAYISSGGGTTYYPDSVKGRFTISRENAKNSLYLQMNSLKSEDTAMYYCARHSGYGTHWGVLFAYWGQGTMVTVSSKASGGPEGGSLAALTAHQACHLPLETFTRHRQPRGWEQLEQCGYPVQRLVALYLAARLSWNQVDQVIRNALASPGSGGDLGEAIREQPEQARLALTLAAAESERFVRQGTGNDEAGAANGPADSGDALLERNYPTGAEFLGDGGDVSFSTRGTQNWTVERLLQAHRQLEERGYVFVGYHGTFLEAAQSIVFGGVRARSQDLDAIWRGFYIAGDPALAYGYAQDQEPDARGRIRNGALLRVYVPRSSLPGFYRTSLTLAAPEAAGEVERLIGHPLPLRLDAITGPEEEGGRLETILGWPLAERTVVIPSAIPTDPRNVGGDLDPSSIPDKEQAISALPDYASQPGKPPREDLK
notes: dsFv-PE38 heterodimer
With B1, the “In Vitro potency assay (EC50, normalized against HA22)” value in test [1] is 4.12 fold of HA22. In addition, the “In Vitro potency assay (pM): EC50 of Daudi cell death, CCK-8” value (shortened to “In Vitro potency assay (pM): EC50”) in test [2] came out at 13.8 pM. Besides, the “EC50, normalized against HA22” value in test [3] was 1.17 fold of HA22. In addition, in test [4], the concentration giving a half-maximal response (EC50) (as a rule, the concentration at which the effect is half-maximal) is 0.2 nM.

B2: Recombinant immunotoxin VH ver 2 + HA22 VL (other)
VL: MDIQMTQTTSSLSASLGDRVTISCRASQDISNYLNWYQQKPDGTVKLLIYYTSILHSGVPSRFSGSGSGTDYSLTISNLEQEDFATYFCQQGNTLPWTFGCGTKLEIK
chain: MEVQLVESGGGLVKPGGSLRLSCAASGFAFSIYDMSWVRQTPEKCLEWVAYISSGGGTTYYPDSVKGRFTISRENAKNSLYLQMNSLKSEDTAMYYCARHSGYGTHWGVLFAYWGQGTMVTVSSKASGGPEGGSLAALTAHQACHLPLETFTRHRQPRGWEQLEQCGYPVQRLVALYLAARLSWNQVDQVIRNALASPGSGGDLGEAIREQPEQARLALTLAAAESERFVRQGTGNDEAGAANGPADSGDALLERNYPTGAEFLGDGGDVSFSTRGTQNWTVERLLQAHRQLEERGYVFVGYHGTFLEAAQSIVFGGVRARSQDLDAIWRGFYIAGDPALAYGYAQDQEPDARGRIRNGALLRVYVPRSSLPGFYRTSLTLAAPEAAGEVERLIGHPLPLRLDAITGPEEEGGRLETILGWPLAERTVVIPSAIPTDPRNVGGDLDPSSIPDKEQAISALPDYASQPGKPPREDLK
notes: dsFv-PE38 heterodimer
Take B2: the “EC50, normalized against HA22” value in test [3] is 0.89 fold of HA22. The EC50 in test [4] worked out at 0.64 nM.

B3: HA22 (moxetumomab pasudotox; HA22 VH-PE38 + HA22 VL), made in-house (other)
VL: MDIQMTQTTSSLSASLGDRVTISCRASQDISNYLNWYQQKPDGTVKLLIYYTSILHSGVPSRFSGSGSGTDYSLTISNLEQEDFATYFCQQGNTLPWTFGCGTKLEIK
chain: MEVQLVESGGGLVKPGGSLKLSCAASGFAFSIYDMSWVRQTPEKCLEWVAYISSGGGTTYYPDTVKGRFTISRDNAKNTLYLQMSSLKSEDTAMYYCARHSGYGTHWGVLFAYWGQGTLVTVSAKASGGPEGGSLAALTAHQACHLPLETFTRHRQPRGWEQLEQCGYPVQRLVALYLAARLSWNQVDQVIRNALASPGSGGDLGEAIREQPEQARLALTLAAAESERFVRQGTGNDEAGAANGPADSGDALLERNYPTGAEFLGDGGDVSFSTRGTQNWTVERLLQAHRQLEERGYVFVGYHGTFLEAAQSIVFGGVRARSQDLDAIWRGFYIAGDPALAYGYAQDQEPDARGRIRNGALLRVYVPRSSLPGFYRTSLTLAAPEAAGEVERLIGHPLPLRLDAITGPEEEGGRLETILGWPLAERTVVIPSAIPTDPRNVGGDLDPSSIPDKEQAISALPDYASQPGKPPREDLK
notes: also called CAT-8015; HA22 VH / HA22 VL
As to B3, the EC50 in test [5] and in test [4] was 0.47 nM throughout. For the same molecule, in test [1], the “In Vitro potency assay (EC50, normalized against HA22)” value is 1 fold of HA22. Also, in test [2], the “In Vitro potency assay (pM): EC50” value is 2.72 pM. Further, the Kd (commonly the equilibrium constant for the complex coming apart) in the test with biotinylated CD22 fell in the range of 4.08 to 5.81 nM. The “EC50, normalized against HA22” value in test [3] was 1 fold of HA22.

B4: H1L2 humanized anti-CD22 recombinant immunotoxin (VH ver 1 + VL ver 2) (other)
VL: MDIQMTQSTSTLSASVGDRVTITCRASQDISNYLNWYQQRPDGSVKLLIYYTSILHSGVPSRFSGSGSGTDYTLTISSLQDEDFATYFCQQGNTLPWTFGCGTKVEIK
chain: MEVQLVESGGGLVKPGGSLRLSCAASGFAFSIYDMSWVRQAPGKCLEWVAYISSGGGTTYYPDSVKGRFTISRENAKNSLYLQMNSLKSEDTAMYYCARHSGYGTHWGVLFAYWGQGTMVTVSSKASGGPEGGSLAALTAHQACHLPLETFTRHRQPRGWEQLEQCGYPVQRLVALYLAARLSWNQVDQVIRNALASPGSGGDLGEAIREQPEQARLALTLAAAESERFVRQGTGNDEAGAANGPADSGDALLERNYPTGAEFLGDGGDVSFSTRGTQNWTVERLLQAHRQLEERGYVFVGYHGTFLEAAQSIVFGGVRARSQDLDAIWRGFYIAGDPALAYGYAQDQEPDARGRIRNGALLRVYVPRSSLPGFYRTSLTLAAPEAAGEVERLIGHPLPLRLDAITGPEEEGGRLETILGWPLAERTVVIPSAIPTDPRNVGGDLDPSSIPDKEQAISALPDYASQPGKPPREDLK
notes: dsFv-PE38 heterodimer, VH and VL linked by a disulfide bond
With B4, the EC50 in test [5] and in test [4] was 0.54 nM in each case. Moreover, the “In Vitro potency assay (EC50, normalized against HA22)” value in test [1] is 1.32 fold of HA22. The “In Vitro potency assay (pM): EC50” value in test [2] turned out to be 4.58 pM. In addition, the Kd with biotinylated CD22 was in the range of 4.66 to 7.21 nM. For the same molecule, in test [3], the “EC50, normalized against HA22” value is 0.81 fold of HA22.

B5: Recombinant immunotoxin VH ver 5 + VL ver 4 (H5L4 by the HmLn naming of paragraph 88) (other)
VL: MDIQMTQSPSTLSASVGDRVTITCRASQDISNYLNWFQQRPGQSPRLLIYYTSILHSGVPSRFSGSGSGTDYTLTISSLQPEDFATYYCQQGNTLPWTFGCGTKVEIK
chain: MEVQLVESGGGLVKPGGSLRLSCAASGFAFSIYDMSWIRQAPGKCLEWVAYISSGGGTTYYPGSVKGRFTISRENAKNSLYLQMNSLRSEDTAVYYCARHSGYGTHWGVLFAYWGQGTMVTVSSKASGGPEGGSLAALTAHQACHLPLETFTRHRQPRGWEQLEQCGYPVQRLVALYLAARLSWNQVDQVIRNALASPGSGGDLGEAIREQPEQARLALTLAAAESERFVRQGTGNDEAGAANGPADSGDALLERNYPTGAEFLGDGGDVSFSTRGTQNWTVERLLQAHRQLEERGYVFVGYHGTFLEAAQSIVFGGVRARSQDLDAIWRGFYIAGDPALAYGYAQDQEPDARGRIRNGALLRVYVPRSSLPGFYRTSLTLAAPEAAGEVERLIGHPLPLRLDAITGPEEEGGRLETILGWPLAERTVVIPSAIPTDPRNVGGDLDPSSIPDKEQAISALPDYASQPGKPPREDLK
notes: dsFv-PE38 heterodimer
As for B5, the “In Vitro potency assay (EC50, normalized against HA22)” value in test [1] was 10.7 fold of HA22. Also, in test [2], the “In Vitro potency assay (pM): EC50” value is 34.9 pM. For the same molecule, the “EC50, normalized against HA22” value in test [3] was 12.5 fold of HA22. Moreover, the EC50 in test [4] turned out to be 2.15 nM.

B6: Recombinant immunotoxin VH ver 4 + VL ver 4 (H4L4 by the HmLn naming of paragraph 88) (other)
VL: MDIQMTQSPSTLSASVGDRVTITCRASQDISNYLNWFQQRPGQSPRLLIYYTSILHSGVPSRFSGSGSGTDYTLTISSLQPEDFATYYCQQGNTLPWTFGCGTKVEIK
chain: MEVQLVESGGGLVKPGGSLRLSCAASGFAFSIYDMSWIRQAPGKCLEWVAYISSGGGTTYYPGSVKGRFTISRENAKNSLYLQMNSLRAGDTAVYYCARHSGYGTHWGVLFAYWGQGTMVTVSSKASGGPEGGSLAALTAHQACHLPLETFTRHRQPRGWEQLEQCGYPVQRLVALYLAARLSWNQVDQVIRNALASPGSGGDLGEAIREQPEQARLALTLAAAESERFVRQGTGNDEAGAANGPADSGDALLERNYPTGAEFLGDGGDVSFSTRGTQNWTVERLLQAHRQLEERGYVFVGYHGTFLEAAQSIVFGGVRARSQDLDAIWRGFYIAGDPALAYGYAQDQEPDARGRIRNGALLRVYVPRSSLPGFYRTSLTLAAPEAAGEVERLIGHPLPLRLDAITGPEEEGGRLETILGWPLAERTVVIPSAIPTDPRNVGGDLDPSSIPDKEQAISALPDYASQPGKPPREDLK
notes: dsFv-PE38 heterodimer; The fusion entry is used here
B6: the “EC50, normalized against HA22” value in test [3] was 39.1 fold of HA22. For the same molecule, the EC50 in test [4] was 6.73 nM.

B7: H2L2 humanized anti-CD22 recombinant immunotoxin (VH ver 2 + VL ver 2) (other)
VL: MDIQMTQSTSTLSASVGDRVTITCRASQDISNYLNWYQQRPDGSVKLLIYYTSILHSGVPSRFSGSGSGTDYTLTISSLQDEDFATYFCQQGNTLPWTFGCGTKVEIK
chain: MEVQLVESGGGLVKPGGSLRLSCAASGFAFSIYDMSWVRQTPEKCLEWVAYISSGGGTTYYPDSVKGRFTISRENAKNSLYLQMNSLKSEDTAMYYCARHSGYGTHWGVLFAYWGQGTMVTVSSKASGGPEGGSLAALTAHQACHLPLETFTRHRQPRGWEQLEQCGYPVQRLVALYLAARLSWNQVDQVIRNALASPGSGGDLGEAIREQPEQARLALTLAAAESERFVRQGTGNDEAGAANGPADSGDALLERNYPTGAEFLGDGGDVSFSTRGTQNWTVERLLQAHRQLEERGYVFVGYHGTFLEAAQSIVFGGVRARSQDLDAIWRGFYIAGDPALAYGYAQDQEPDARGRIRNGALLRVYVPRSSLPGFYRTSLTLAAPEAAGEVERLIGHPLPLRLDAITGPEEEGGRLETILGWPLAERTVVIPSAIPTDPRNVGGDLDPSSIPDKEQAISALPDYASQPGKPPREDLK
notes: dsFv-PE38 heterodimer
Take B7: the EC50 in test [5] and in test [4] was 0.56 nM each time. In test [1], the “In Vitro potency assay (EC50, normalized against HA22)” value is 1.23 fold of HA22. Further, in test [2], the “In Vitro potency assay (pM): EC50” value was found to be 4.26 pM. In the test with biotinylated CD22, the Kd is 5.01 to 7.02 nM. In test [3], the “EC50, normalized against HA22” value was 1.1 fold of HA22.

B8: Recombinant immunotoxin VH ver 1 + VL ver 3 (H1L3 by the HmLn naming of paragraph 88) (other)
VL: MDIQMTQSPSTLSASVGDRVTITCRASQDISNYLNWFQQRPGQSPRRLIYYTSILHSGVPSRFSGSGSGTDYTLTISSLQPEDFATYYCQQGNTLPWTFGCGTKVEIK
chain: MEVQLVESGGGLVKPGGSLRLSCAASGFAFSIYDMSWVRQAPGKCLEWVAYISSGGGTTYYPDSVKGRFTISRENAKNSLYLQMNSLKSEDTAMYYCARHSGYGTHWGVLFAYWGQGTMVTVSSKASGGPEGGSLAALTAHQACHLPLETFTRHRQPRGWEQLEQCGYPVQRLVALYLAARLSWNQVDQVIRNALASPGSGGDLGEAIREQPEQARLALTLAAAESERFVRQGTGNDEAGAANGPADSGDALLERNYPTGAEFLGDGGDVSFSTRGTQNWTVERLLQAHRQLEERGYVFVGYHGTFLEAAQSIVFGGVRARSQDLDAIWRGFYIAGDPALAYGYAQDQEPDARGRIRNGALLRVYVPRSSLPGFYRTSLTLAAPEAAGEVERLIGHPLPLRLDAITGPEEEGGRLETILGWPLAERTVVIPSAIPTDPRNVGGDLDPSSIPDKEQAISALPDYASQPGKPPREDLK
For B8, the “In Vitro potency assay (EC50, normalized against HA22)” value in test [1] is 4.59 fold of HA22. Moreover, the “In Vitro potency assay (pM): EC50” value in test [2] is 57.2 pM.
